Data as given in patent US20190367592A1 (AC IMMUNE, published 2019).
Changes are numbered by the printed parent chain.

B1: hu37D3-H9.v5.4 (antibody, V domains shown)
VH: EVQLVESGGGLVQPGGSLRLSCAASGLIFRSYGMSWVRQAPGKGLEWVATINSGGTYTYYPDSVKGRFTISRDNSKNTLYLQMNSLRAEDTAVYYCANSYSGAMDYWGQGTLVTVSS
VL: EDVLTQTPLSLPVTPGQPASISCRSSQSIVHSQGNTYFEWYLQKPGQSPQLLIYKVSNRFSGVPDRFSGSGSGTDFTLKISRVEAEDVGVYYCFQGSLVPWTFGQGTKVEIK
B2: hu37D3-H9.v31.14 (antibody, V domains shown)
VH: B1 VH
VL: B1 VL with E1D, Q33N, G34A, T36R
B3: hu37D3.v28.B3 (antibody, V domains shown)
VH: B1 VH
VL: B1 VL with E1D, Y37W
B4: hu37D3.v28.B8 (antibody, V domains shown)
VH: B1 VH
VL: B1 VL with E1D, Q33E, Y37R
B5: hu37D3-H9.v31.4 (antibody, V domains shown)
VH: B1 VH
VL: B1 VL with E1D, Q33N, G34A, N35P
B6: hu37D3-H9.v31.1 (antibody, V domains shown)
VH: B1 VH
VL: B1 VL with E1D, Q33N, G34A, N35G
B7: hu37D3.v28.B4 (antibody, V domains shown)
VH: B1 VH
VL: B1 VL with E1D, Y37H
B8: hu37D3.v28.B7 (antibody, V domains shown)
VH: B1 VH
VL: B1 VL with E1D, Q33D, Y37K
B9: hu37D3-H9.v31.13 (antibody, V domains shown)
VH: B1 VH
VL: B1 VL with E1D, Q33N, G34A, T36N
B10: hu37D3-H9.v5.6 (antibody, V domains shown)
VH: B1 VH
VL: B1 VL with Q33A
B11: hu37D3.v28.E3 (antibody, V domains shown)
VH: B1 VH
VL: B1 VL with E1D, H31D, Q33D
B12: hu37D3-H9.v5.5 (antibody, V domains shown)
VH: B1 VH
VL: B1 VL with Q33E
B13: hu37D3-H9.v31.11 (antibody, V domains shown)
VH: B1 VH
VL: B1 VL with E1D, Q33N, G34A, T36F
B14: hu37D3-H9.v31.10 (antibody, V domains shown)
VH: B1 VH
VL: B1 VL with E1D, Q33N, G34A, T36P
B15: hu37D3.v28.51 (antibody, V domains shown)
VH: B1 VH
VL: B1 VL with Q33H
B16: hu37D3-H9.v31.12 (antibody, V domains shown)
VH: B1 VH
VL: B1 VL with E1D, Q33N, G34A, T36Y
B17: hu94B2 HC5 + LC11 (antibody, V domains shown)
VH: EVQLVQSGAEVKKPGASVKVSCKASGYSLTGYTMNWVRQAPGQGLEWIGLISPYNGVTSYNQKFKGRATLTVDTSTSTAYLELSSLRSEDTAVYYCARQGAYWGQGTLVTVSS
VL: DVVMTQTPLSLPVTPGQPASISCKSSQSLLDSDGKTYLNWYLQKPGQSPQRLIYLVSKLDSGVPDRFSGSGSGTDFTLKISRVEAEDVGVYYCWQGTHFPWTFGQGTKVEIK
B18: hu94B2 HC7 + LC9 (antibody, V domains shown)
VH: B17 VH with A68V, L70I, V72R, T74K
VL: B17 VL with Y41L
B19: hu94B2 HC8 + LC9 (antibody, V domains shown)
VH: B17 VH with A68V, L70I
VL: B17 VL with Y41L
B20: hu94B2 HC8 + LC15 (antibody, V domains shown)
VH: B17 VH with A68V, L70I
VL: B17 VL with V2I
B21: hu94B2 HC8 + LC11 (antibody, V domains shown)
VH: B17 VH with A68V, L70I
VL: B17 VL
B22: hu94B2 HC7 + LC13 (antibody, V domains shown)
VH: B17 VH with A68V, L70I, V72R, T74K
VL: B17 VL with V2I, Y41L
B23: hu94B2 HC8 + LC13 (antibody, V domains shown)
VH: B17 VH with A68V, L70I
VL: B17 VL with V2I, Y41L
B24: hu94B2 HC6 + LC11 (antibody, V domains shown)
VH: B17 VH with A68V, L70I, T74K
VL: B17 VL
B25: hu94B2 HC6 + LC15 (antibody, V domains shown)
VH: B17 VH with A68V, L70I, T74K
VL: B17 VL with V2I
B26: hu94B2 HC5 + LC13 (antibody, V domains shown)
VH: B17 VH
VL: B17 VL with V2I, Y41L
B27: hu94B2 HC5 + LC15 (antibody, V domains shown)
VH: B17 VH
VL: B17 VL with V2I
B28: hu94B2 HC6 + LC13 (antibody, V domains shown)
VH: B17 VH with A68V, L70I, T74K
VL: B17 VL with V2I, Y41L
B29: hu94B2 HC6 + LC9 (antibody, V domains shown)
VH: B17 VH with A68V, L70I, T74K
VL: B17 VL with Y41L

Target: T1, recombinant human Tau monomer, 2N4R isoform (amino acids 2-441) (human, UniProt P10636-8 2-441)
T1 construct: range 2-441; N-terminal His-tag removed with TEV protease; also called monomeric Tau
Test: SPR; Normalized Rmax post-stress (2 weeks 40 C) / pre-stress
Procedure, shortened: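 SPR read-out: Rmax divided by captured-IgG Ligand Level gives Normalized Rmax; post-stress (40° C., 2 weeks) over pre-stress (~4° C.) value is the Stability Index. Tau analyte at 0, 26.5, 265 nM, 180 s association, 300 s dissociation, multi-cycle kinetics, 1:1 model.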

T1 sequence (P10636 other isoform, or with tags, fused parts or gaps limits assumed): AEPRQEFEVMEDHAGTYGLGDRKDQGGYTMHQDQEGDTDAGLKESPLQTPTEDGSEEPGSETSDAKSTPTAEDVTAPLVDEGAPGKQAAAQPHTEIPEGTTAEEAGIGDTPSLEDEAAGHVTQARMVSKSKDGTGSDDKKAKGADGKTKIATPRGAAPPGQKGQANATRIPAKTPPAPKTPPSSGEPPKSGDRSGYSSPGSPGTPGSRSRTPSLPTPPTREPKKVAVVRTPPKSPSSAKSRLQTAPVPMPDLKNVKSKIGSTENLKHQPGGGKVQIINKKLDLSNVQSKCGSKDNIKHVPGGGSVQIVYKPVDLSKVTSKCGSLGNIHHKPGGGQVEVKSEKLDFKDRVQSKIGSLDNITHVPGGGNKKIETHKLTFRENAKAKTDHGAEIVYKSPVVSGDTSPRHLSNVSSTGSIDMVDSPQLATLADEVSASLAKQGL

Row | Binder | Stability Index [%]
1 | B1 | 78
2 | B2 | 86
3 | B3 | 208
4 | B4 | 456
5 | B5 | 533
6 | B6 | 72
7 | B7 | 288
8 | B8 | 607
9 | B9 | 83
10 | B10 | 67
11 | B11 | 364
12 | B12 | 75
13 | B13 | 126
14 | B14 | 261
15 | B15 | 74
16 | B16 | 99

Target: T1, recombinant human Tau monomer, 2N4R …
Test: SPR screen, hIgG captured, Tau monomer analyte
Source text: Antibody 125B11-H3 was humanized onto VH3 and Vκ1 consensus frameworks. The heavy chain graft included murine residues at position 78 (Kabat numbering system). The Vκ1 graft included murine residues in framework positions 43 and 87. The light chain of 113F5-F7 was also humanized onto the Vκ1 framework, with additional murine residues at framework positions 43 and 87. Humanized variant heavy chains (125B11) and light chains (125B11 and 113F5-F7) were co-transfected in multiple combinations and purified in 96-well format as described above. Humanized variants were then screened for affinity for human Tau monomer using the Biacore human IgG capture kit, a Series S CM5 chip and a Biacore T200 instrument. Antibodies were diluted to 2 μg/ml and captured for 15 seconds at 10 μl/min. Association and dissociation of 0, 100 and 500 nM human Tau monomer in HBSP was monitored for 180s and 300s respectively at a flow rate of 40 μl/min. A 1:1 binding model was applied to the results (Table 9).
Variants hu125B11.v17 (HC3+LC1), hu125B11.v26 (HC4+LC2) and hu125B 11.v28 (HC4+LC4) were selected for high-resolution kinetic analysis based on the affinity screen (Table 10). Antibody 94B2-C1 was humanized onto VH1 and Vx2 frameworks. The heavy chain graft also included murine residues at position 28, 29, 67, 69, 71, and 73 (Kabat numbering system). The Vκ2 graft also included murine residues in framework positions 2, 36, and 46. […] Variant hu94B2.v105 (heavy chain variant 94B2.HCl, light chain variant 94B2.LC13) was selected for detailed SPR characterization (Table 11).

Row | Binder | Kd [nM]
17 | B17 | 62.6
18 | B18 | 52.9
19 | B19 | 1
20 | B20 | 51.5
21 | B21 | 44.3
22 | B22 | 57.8
23 | B23 | 2.4
24 | B24 | 70.1
25 | B25 | 74.1
26 | B26 | 4
27 | B27 | 72.6
28 | B28 | 3
29 | B29 | 0.9

Target: T1, recombinant human Tau monomer, 2N4R …
Test: SPR, captured IgG, Tau monomer analyte, 1:1 model; fit-quality column: -
Method: Briefly, IgGs in 1 mL culuture were captured using tip columns that were custom packed with 20 μL MabSelect SuRe resin (Glygen Corp & GE Healthcare). After washing with 1×PBS pH 7.4, IgGs were eluted into 160 μL of 50 mM phosphoric acid pH 3 and neutralized with 12 μL of 20×PBS pH 11. MabSelect SuRe tip columns were stripped in 0.1 M NaOH and regenerated with 1×PBS pH 7.4 for consecutive use of up to 15 times. Purified antibodies in 96-well format were normalized to 0.1 mg/ml using a Hamilton Star liquid handling robot. The “pre-stress” samples were kept at approximately 4° C. and the “post-stress” samples were incubated at 40° C. for two weeks in a PCR machine. Functional stability of the variants was compared by running surface plasmon resonance kinetics experiments with the “pre-stress” and “post-stress” antibody preps. The antibodies were assessed using a human antibody capture CM5 Series S chip generated using the GE Biacore human IgG capture kit and a Biacore T200 instrument. Antibodies diluted to 2 μg/ml were immobilized using a 15 second injection time and 10 μl/min flow rate. Binding to Tau monomer at 0 nM, 26.5 nM and 265 nM, at 25° C., using a flow rate of 40 μl/min, was monitored for a 180 second association phase followed by a 300 second dissociation phase. Samples were run in 10 mM HEPES pH7.4, 150 mM NaCl, 0.05% Tween 20 (HBSP) using a multi-cycle kinetics format. Data was analyzed using BIAevaluation software, fitting a 1:1 binding model. The resulting affinity (KD) values are shown in FIG. 8A-D. A Stability Index was also calculated, using the rationale that affinity-compromised antibodies (due for example to deamidation of key residues) are expected to contribute equally to the IgG capture level (“Ligand Level”) but to contribute less to the measured Tau binding, and that this would be reflected in the experimentally derived value for Rmax. To account for variations in the amount of each antibody captured, Rmax was normalized for the antibody capture level (as measured by “Ligand Level”, Response Units immobilized during antibody capture). Thus Normalized Rmax is calculated as the experimental Rmax (units=RU) divided by the “Ligand Level” (Evaluation output representing the RU captured during the hIgG capture step, units=RU), and Stability Index is calculated here as Normalized Rmax (post-stress) divided by Normalized Rmax (pre-stress).

Row | Binder | Kd [nM]
30 | B1 | 36.1
31 | B2 | 35.5
32 | B3 | 0.4
33 | B4 | 1.8
34 | B5 | 0.8
35 | B6 | 41.2
36 | B7 | 10.5
37 | B8 | 4.1
38 | B9 | 48.1
39 | B10 | 36.6
40 | B11 | 1.1
41 | B12 | 64.5
42 | B13 | 22.7
43 | B14 | 5.5
44 | B15 | 35.6
45 | B16 | 41.6
